Experimental data taken from the RNAGym collection of RNA variant scans (doi:10.7554/elife.80360).

B1: Hairpin Ribozyme (parent)
chain: GUCCUCUUUCACGUGCGCGUGAAAGAGAGAAGUGAACCAGAGAAACACACGUUGUGGUAUAUUACCUGGUA

Variants of: B1
Assay: self-cleavage, relative activity (ratio to wild type); higher = more cleavage; co-transcriptional
GUCCUCUUUCACGUGCGCGUGAAAGAGAGAAGUGAAGAAGAGAAACACACGUUGUGGUAUAUUACCUGGUA [C37G C38A] showed a self-cleavage of 0.152.
Variant GUCCUCCUUCACGUGCGCGUGAAAGAGAGAAGUGAACCAGAGAAACACACGUUGUGGUAUAAUACCUGGUA [U7C U62A] has a self-cleavage of 0.288.
Variant GUCCUCUUUCACGUGCGCGUGAAAGAGAGAAGUGAACCAGAGAAACACACGUCAUGGUAUAUUACCUGGUA [U53C G54A] has a self-cleavage of 0.418.
In the case of GUCCUCUUUCACGUGCGCGUGAAAGAGAGAAGUGAACCAGAGAAACACACGUUGUGUUAUAUUUCCUGGUA [G57U A64U], the self-cleavage is reported as 0.173.
GUCCUCUUUCACGUCCGCGUGAAAGAGCGAAGUGAACCAGAGAAACACACGUUGUGGUAUAUUACCUGGUA [G15C A28C] gave a self-cleavage of 0.407.
For GUCGUCUUUCACGUGCGCGUGAAAGAGAGAAGUGAGCCAGAGAAACACACGUUGUGGUAUAUUACCUGGUA [C4G A36G], the self-cleavage was 0.248.
With GUCCUCUUUCACGUGCGCGUGAAAGAGAGAAGUGAACCAGAGAAACACAGGUUGUGGUAGAUUACCUGGUA [C50G U60G] the self-cleavage was 0.158.
For GUCCUCUUUCACGUGCUCGUGAAAGAGAGAACUGAACCAGAGAAACACACGUUGUGGUAUAUUACCUGGUA [G17U G32C], the self-cleavage was 0.137.
GUCCUCUUUCACGAGCGCGUGAAAGAGAGAAGUGAACCAGAGAAACACACGUUGUGGUAUAUUACCUGGUU [U14A A71U] showed a self-cleavage of 0.645.
With GUCCUCUUUCUCGUGCGCGUGAAAGAGAGAAGUGAACCAGAAAAACACACGUUGUGGUAUAUUACCUGGUA [A11U G42A] the self-cleavage was 0.136.
For GUCCUCUUUCACGUGGGCGUGAAAGAGAGAAGUGAACCAGAGAAACACACGUUGUGUUAUAUUACCUGGUA [C16G G57U], the self-cleavage was 0.119.
For GUCCUCUUUCACGUGCGCGUGAAAGAUACAAGUGAACCAGAGAAACACACGUUGUGGUAUAUUACCUGGUA [G27U G29C], the self-cleavage was 0.101.
In the case of GUCCUCUUUCUCGUGCGCGUGAAAGAGAGAAGUGAACCAGAGAAACACACGUUGUGGUAUAUUACCUGGUG [A11U A71G], the self-cleavage is reported as 0.977.
Work on GUCCUCUUUCACGUGCGCGUGAAAGAGAAAAGUGAACCAGAGAAACACACGUUGGGGUAUAUUACCUGGUA [G29A U55G] yielded a self-cleavage of 0.143.
Work on GUCCUCUUUAACGUGCGCGUGAAAGAGAGAAGUGAACCAGAGAAACACACGUUGUGGUAUAUUACUUGGUA [C10A C66U] yielded a self-cleavage of 0.312.
Variant GUCCUCUUUCACGUGCGCGUGAAAGAGAGAAGUGAACCGGAGAAACACACGUUGUGGUAAAUUACCUGGUA [A39G U60A] has a self-cleavage of 0.228.
Work on GUCCUCUUUCACGAGCGCGUGAAAGAGAGAAGUGACCCAGAGAAACACACGUUGUGGUAUAUUACCUGGUA [U14A A36C] yielded a self-cleavage of 0.502.
For GUCCUCUUUCACGUGCGCGUGAAAGAAAGAAGUGAACCAGAGAAACACACGUUGCGGUAUAUUACCUGGUA [G27A U55C], the self-cleavage was 0.211.
Work on GUCCUCUUUGACGUGCGCGUGAAAGAGAGAAGUGAACCAGAGAAACACACGUUGUGAUAUAUUACCUGGUA [C10G G57A] yielded a self-cleavage of 0.0913.
Variant GUCCUCUUUCACGUGCGCGUGAAAGAGAGUAGUGAACCAGAGAAACACACGUUGUGGUAUAUUACCUGAUA [A30U G69A] has a self-cleavage of 0.146.
GUCCUCUUUCACGUGCGCGUGAAAGAGAGAAGUCAACCAGAGAAACACACGUUGUGGGAUAUUACCUGGUA [G34C U58G] showed a self-cleavage of 1.09.
For GUCCGCUUUCACGUGCGCGUGAAGGAGAGAAGUGAACCAGAGAAACACACGUUGUGGUAUAUUACCUGGUA [U5G A24G], the self-cleavage was 0.331.
GUCCUCUUUCUCGUGCGCGUGAAAGAGAGAAGUGAACCAGAGAAACACAGGUUGUGGUAUAUUACCUGGUA [A11U C50G] showed a self-cleavage of 0.258.
GUCCUCUUUCACGUGCGCGUGAAAGAGAGAAGUGAACCAGAGAAACACACGUUGUGGUAUAUUACCUCAUA [G68C G69A] showed a self-cleavage of 0.152.
Work on GUCCUCUUUCACGUGCGCGUGAAAGAGAGAAGUGAACCAGAGAAACAAACGUUAUGGUAUAUUACCUGGUA [C48A G54A] yielded a self-cleavage of 0.169.
Variant GUCCUCUUUCACGGGCGCGUGAAAGAGAGAAGUGAACCAGGGAAACACACGUUGUGGUAUAUUACCUGGUA [U14G A41G] has a self-cleavage of 0.589.
Work on GUCCUCUUUUACGUGCGCGGGAAAGAGAGAAGUGAACCAGAGAAACACACGUUGUGGUAUAUUACCUGGUA [C10U U20G] yielded a self-cleavage of 0.498.
Variant GUCCUCUUUCACGUGCGCGUGAAAGAGAGAAGUGAACCAGAGAAACACACGUUGUGGGAUAUCACCUGGUA [U58G U63C] has a self-cleavage of 0.271.
For GUCCGCUUUCACGUGCGCGUGAAAGAGAGAAGUGGACCAGAGAAACACACGUUGUGGUAUAUUACCUGGUA [U5G A35G], the self-cleavage was 0.36.
GUCCGCUUUCACGUGCGCGUGAAAGAGAGAAGUUAACCAGAGAAACACACGUUGUGGUAUAUUACCUGGUA [U5G G34U] showed a self-cleavage of 1.08.
Work on GUCCUCUUUCACGUGCGCGUAAAAGAGAGAAGUGAACCAGAGAAACACACGUUGUGGUAUUUUACCUGGUA [G21A A61U] yielded a self-cleavage of 0.18.
Work on GUCCUCUUUCACGUGCGCGUGAAAGAGAGAAGUGAACCAGAGAAAGACACGUUGUGGUAUUUUACCUGGUA [C46G A61U] yielded a self-cleavage of 0.157.
For GUCCUCUUUCACGUGCGCGGGAAAGAGAGAAGUGAACCCGAGAAACACACGUUGUGGUAUAUUACCUGGUA [U20G A39C], the self-cleavage was 0.461.
Work on GUCCUCUUUCACGUGCGCGUGAAAGAGAGAAGUGAACCAGAGAAACACACGUUGUGGUAUAUUACUAGGUA [C66U U67A] yielded a self-cleavage of 0.162.
GUCCUCUUUCACGUGCGCGUGAAAGAGAGAAGCGAACCAGAGAAACACACGUUGUGGUAUUUUACCUGGUA [U33C A61U] showed a self-cleavage of 0.163.
CUCCUCUUUCACGUGCGGGUGAAAGAGAGAAGUGAACCAGAGAAACACACGUUGUGGUAUAUUACCUGGUA [G1C C18G] gave a self-cleavage of 0.307.
For GUCCUCUUUCACGUGCGCGUGAAAGAGAAAAGAGAACCAGAGAAACACACGUUGUGGUAUAUUACCUGGUA [G29A U33A], the self-cleavage was 0.203.
Variant GUCCUCCUUCACGUGCGCCUGAAAGAGAGAAGUGAACCAGAGAAACACACGUUGUGGUAUAUUACCUGGUA [U7C G19C] has a self-cleavage of 0.683.
